Our source for the Kd values is article PMC10148881, “Recognition of an Ala-rich C-degron by the E3 ligase Pirh2” (Nature Communications, 2023).

As a reminder, the Kd is the free concentration of one partner at which half of the binding sites on the other are occupied at equilibrium, for simple one-to-one binding.

Common to all, as to test: ITC; peptides (0.6–1.0 mM) titrated into the cell with 180–220 μM protein at 16 °C; 20 mM Tris-HCl pH 7.5, 150 mM NaCl, 10 μM Zn2+; one-site binding model
Common to all, as to settings: both partners purified
For orientation: In ITC the heat of successive injections is recorded.

Assay [1] has as its target T1, full-length Pirh2 (residues 1–261) (human, UniProt Q96PM5 1-261).
T1 construct: human Pirh2 (Rchy1, RING finger and CHY zinc finger domain-containing protein 1), residues 1–261; Cloned into pET28-MKH8SUMO; the tag was cut off with TEV protease; also called Rchy1; p53-induced RING-H2 protein; source: E. coli BL21 (DE3), purified (Ni-NTA, TEV cleavage, SEC); not shown: 8xHis-SUMO, N-terminal, cleaved
T1 sequence (looked up): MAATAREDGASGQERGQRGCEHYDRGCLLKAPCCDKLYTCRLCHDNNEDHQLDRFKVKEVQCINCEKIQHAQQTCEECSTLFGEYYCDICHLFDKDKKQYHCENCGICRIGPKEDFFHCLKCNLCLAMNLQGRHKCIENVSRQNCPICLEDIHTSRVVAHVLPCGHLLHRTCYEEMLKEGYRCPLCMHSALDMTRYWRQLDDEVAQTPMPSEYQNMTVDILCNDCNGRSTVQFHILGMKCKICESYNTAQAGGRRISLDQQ

The target in assay [2] is T2, Pirh2 NTD + RING (residues 1–189) (human, UniProt Q96PM5 1-189).
T2 construct: human Pirh2 (Rchy1), NTD + RING, residues 1–189; source: E. coli BL21 (DE3), purified (Ni-NTA, TEV cleavage, SEC); not shown: 8xHis-SUMO, N-terminal, cleaved
T2 sequence (looked up): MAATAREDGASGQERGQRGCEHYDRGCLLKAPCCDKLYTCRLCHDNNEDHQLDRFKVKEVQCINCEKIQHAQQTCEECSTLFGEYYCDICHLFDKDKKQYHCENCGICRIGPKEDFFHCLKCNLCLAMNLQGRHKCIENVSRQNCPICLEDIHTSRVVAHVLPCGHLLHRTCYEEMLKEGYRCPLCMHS

The target in assay [3] is T3, Pirh2 NTD (residues 1–137) (human, UniProt Q96PM5 1-137).
T3 construct: human Pirh2 (Rchy1), NTD, residues 1–137; also called CHY zinc finger; source: E. coli BL21 (DE3), purified (Ni-NTA, TEV cleavage, SEC); not shown: 8xHis-SUMO, N-terminal, cleaved
T3 sequence (looked up): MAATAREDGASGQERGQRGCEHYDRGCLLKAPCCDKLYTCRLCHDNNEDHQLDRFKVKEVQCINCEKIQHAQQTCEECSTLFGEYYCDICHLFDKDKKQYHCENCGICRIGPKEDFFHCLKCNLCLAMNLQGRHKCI

B1: Ala6/C-degron peptide (sequence: YKTSAAAAAA) (peptide)
peptide: YKTSAAAAAA
notes: decapeptide with a C-terminal six-Ala degron and a free C-terminus; also called decapeptide containing the Ala6/C-degron; six-Ala peptide; source: synthetic peptide
Regarding B1, the Kd came to 0.9 µM in assay [1], 0.5 µM in assay [2] and 5.5 µM in assay [3].

YKTSAAAATA [Ala6/C-degron peptide with the threonine mutation of Ala-2]: the Kd in assay [2] stood at 15 µM.
